Assay results published in PMC2756588.

Tests used:
Experiment in all cases: SPOT array
[1] = target: T1, Myo5, Q04439; conditions: median of control spots 471
T1 sequence (Q04439 1072-1160, looked up): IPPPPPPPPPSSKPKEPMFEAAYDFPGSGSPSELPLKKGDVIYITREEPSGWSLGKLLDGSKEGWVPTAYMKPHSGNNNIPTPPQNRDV

[2] = target: T2, Bzz1-1, P38822; conditions: median of control spots 4446
T2 sequence (P38822 478-572, looked up): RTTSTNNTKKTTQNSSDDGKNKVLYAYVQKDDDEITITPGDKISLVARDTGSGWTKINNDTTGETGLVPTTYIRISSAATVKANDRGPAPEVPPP

[3] = target: T3, Bzz1-2, P38822; conditions: median of control spots 4538
T3 sequence (P38822 568-633, looked up): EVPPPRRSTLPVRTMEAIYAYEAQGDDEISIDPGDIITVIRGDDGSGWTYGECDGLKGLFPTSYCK

[4] = target: T4, Hof1, Q05080; conditions: median of control spots 4086
T4 sequence (Q05080 590-669, looked up): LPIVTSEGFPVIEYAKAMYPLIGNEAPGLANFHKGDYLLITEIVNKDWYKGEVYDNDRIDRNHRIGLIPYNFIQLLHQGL

[5] = target: GST; conditions: median of control spots 978
[6] = target: T5, Fus1, P11710; conditions: median of control spots 1200
T5 sequence (P11710 432-512, looked up): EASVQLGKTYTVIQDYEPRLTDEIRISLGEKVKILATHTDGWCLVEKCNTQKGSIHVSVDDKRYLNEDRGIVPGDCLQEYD

[7] = target: T6, Lsb4, P32793; conditions: median of control spots 397
T6 sequence (P32793 402-468, looked up): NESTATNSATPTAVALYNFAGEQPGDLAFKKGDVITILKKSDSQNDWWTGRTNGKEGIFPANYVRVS

[8] = target: T7, Bud14, P27637; conditions: median of control spots 956
T7 sequence (P27637 247-328, looked up): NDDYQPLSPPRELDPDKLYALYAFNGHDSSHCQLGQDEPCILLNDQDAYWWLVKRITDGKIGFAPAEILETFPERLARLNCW

[9] = target: T8, Nbp2, Q12163; conditions: median of control spots 357
T8 sequence (Q12163 103-180, looked up): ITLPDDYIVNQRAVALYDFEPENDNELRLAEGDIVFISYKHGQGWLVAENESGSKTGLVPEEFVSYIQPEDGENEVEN

[10] = target: T9, Bbc1, P47068; conditions: median of control spots 796
T9 sequence (P47068 1-78, looked up): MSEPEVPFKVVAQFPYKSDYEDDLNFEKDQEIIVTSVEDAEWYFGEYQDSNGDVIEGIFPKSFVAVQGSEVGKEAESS

[11] = target: Sho1, P40073; conditions: median of control spots 1148
Sequence of Sho1, P40073 (P40073 287-367): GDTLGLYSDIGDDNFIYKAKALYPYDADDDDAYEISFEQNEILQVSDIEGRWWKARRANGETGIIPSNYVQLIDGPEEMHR

[12] = target: T10, Sla1-3, P32790; conditions: median of control spots 5475
T10 sequence (P32790 344-424, looked up): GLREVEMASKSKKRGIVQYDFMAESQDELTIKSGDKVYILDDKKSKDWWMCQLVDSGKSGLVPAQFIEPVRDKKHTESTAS

[13] = target: T11, Cyk3, Q07533; conditions: median of control spots 1451
T11 sequence (Q07533 1-83, looked up): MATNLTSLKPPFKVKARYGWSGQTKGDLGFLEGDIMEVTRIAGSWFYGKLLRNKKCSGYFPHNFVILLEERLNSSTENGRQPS

[14] = target: T12, Sla1-2, P32790; conditions: median of control spots 712
T12 sequence (P32790 60-140, looked up): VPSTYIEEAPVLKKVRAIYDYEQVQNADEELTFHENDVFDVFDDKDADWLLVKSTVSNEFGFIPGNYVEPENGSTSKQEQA

[15] = target: T13, Hse1, P38753; conditions: median of control spots 1727
T13 sequence (P38753 208-285, looked up): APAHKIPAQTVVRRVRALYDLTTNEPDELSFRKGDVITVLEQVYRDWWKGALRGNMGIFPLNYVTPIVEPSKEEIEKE

[16] = target: T14, Boi1, P38041; conditions: median of control spots 1162
T14 sequence (P38041 1-86, looked up): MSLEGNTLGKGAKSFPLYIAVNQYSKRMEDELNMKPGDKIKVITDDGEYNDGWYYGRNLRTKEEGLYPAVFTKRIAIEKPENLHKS

[17] = target: T15, Cdc25, P04821; conditions: median of control spots 969
T15 sequence (P04821 50-136, looked up): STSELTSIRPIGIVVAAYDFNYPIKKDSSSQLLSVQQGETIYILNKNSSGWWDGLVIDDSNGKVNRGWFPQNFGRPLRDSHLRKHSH

[18] = target: T16, Pex13, P80667; conditions: median of control spots 1341
T16 sequence (P80667 295-386, looked up): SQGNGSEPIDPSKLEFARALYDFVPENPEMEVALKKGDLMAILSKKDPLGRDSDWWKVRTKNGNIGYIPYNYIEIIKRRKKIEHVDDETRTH

[19] = target: T17, Pin3, Q06449; conditions: median of control spots 2171
T17 sequence (Q06449 53-122, looked up): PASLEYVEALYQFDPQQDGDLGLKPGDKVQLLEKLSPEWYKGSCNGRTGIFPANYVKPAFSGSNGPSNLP

[20] = target: Bem1-2, P29366; conditions: median of control spots 4347
Sequence of Bem1-2, P29366 (P29366 139-227): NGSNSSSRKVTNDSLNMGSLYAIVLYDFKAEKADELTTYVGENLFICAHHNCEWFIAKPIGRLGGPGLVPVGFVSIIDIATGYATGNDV

[21] = target: T18, Lsb1, P53281; conditions: median of control spots 388
T18 sequence (P53281 45-122, looked up): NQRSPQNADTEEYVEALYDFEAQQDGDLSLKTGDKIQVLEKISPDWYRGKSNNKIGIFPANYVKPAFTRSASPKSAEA

[22] = target: Bem1-1, P29366; conditions: median of control spots 4282
Sequence of Bem1-1, P29366 (P29366 55-141): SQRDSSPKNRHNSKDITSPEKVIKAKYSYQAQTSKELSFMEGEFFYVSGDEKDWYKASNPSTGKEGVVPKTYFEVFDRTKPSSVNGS

[23] = target: Myo3, P36006; conditions: median of control spots 468
[24] = target: T19, Boi2, P39969; conditions: median of control spots 1161
T19 sequence (P39969 32-116, looked up): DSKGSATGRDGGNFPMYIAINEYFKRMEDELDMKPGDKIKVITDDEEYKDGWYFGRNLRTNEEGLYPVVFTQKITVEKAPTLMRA

[25] = target: T20, Abp1, P15891; conditions: median of control spots 935
T20 sequence (P15891 535-592, looked up): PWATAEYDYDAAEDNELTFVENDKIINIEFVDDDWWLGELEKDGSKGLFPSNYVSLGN

[26] = target: Rvs167, P39743; conditions: median of control spots 2707
Sequence of Rvs167, P39743 (P39743 419-482): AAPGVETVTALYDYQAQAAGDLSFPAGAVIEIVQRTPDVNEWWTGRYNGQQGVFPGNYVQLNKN

[27] = target: T21, Lsb3, P43603; conditions: median of control spots 406
T21 sequence (P43603 385-451, looked up): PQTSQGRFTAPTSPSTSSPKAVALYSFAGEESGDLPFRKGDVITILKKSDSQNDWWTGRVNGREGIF

B1: unnamed (peptide)
chain: LFMKGTPEFPKSGFS
- SPOT intensity [1]: 48
- SPOT intensity [2]: 0
- SPOT intensity [3]: 0
- SPOT intensity [4]: 0
- SPOT intensity [5]: 0
- SPOT intensity [6]: 0
- SPOT intensity [7]: 50
- SPOT intensity [8]: 1
- SPOT intensity [9]: 5
- SPOT intensity [10]: 1
- SPOT intensity [11]: 17
- SPOT intensity [12]: 0
- SPOT intensity [13]: 0
- SPOT intensity [14]: 5
- SPOT intensity [15]: 2
- SPOT intensity [16]: 0
- SPOT intensity [17]: 0
- SPOT intensity [18]: 211
- SPOT intensity [19]: 40
- SPOT intensity [20]: 0
- SPOT intensity [21]: 67
- SPOT intensity [22]: 0
- SPOT intensity [23]: 54
- SPOT intensity [24]: 0
- SPOT intensity [25]: 85
- SPOT intensity [26]: 1
- SPOT intensity [27]: 8

B2: unnamed (peptide)
chain: VYTRTAFQIPGDDKI
- SPOT intensity [1]: 0
- SPOT intensity [2]: 0
- SPOT intensity [3]: 3
- SPOT intensity [4]: 0
- SPOT intensity [5]: 3
- SPOT intensity [6]: 0
- SPOT intensity [7]: 0
- SPOT intensity [8]: 0
- SPOT intensity [9]: 0
- SPOT intensity [10]: 0
- SPOT intensity [11]: 0
- SPOT intensity [12]: 0
- SPOT intensity [13]: 0
- SPOT intensity [14]: 1
- SPOT intensity [15]: 0
- SPOT intensity [16]: 0
- SPOT intensity [17]: 2
- SPOT intensity [18]: 0
- SPOT intensity [19]: 29
- SPOT intensity [20]: 0
- SPOT intensity [21]: 1120
- SPOT intensity [22]: 0
- SPOT intensity [23]: 0
- SPOT intensity [24]: 0
- SPOT intensity [25]: 0
- SPOT intensity [26]: 0
- SPOT intensity [27]: 0

B3: unnamed (peptide)
chain: GRSRLFPHSPLGRSS
- SPOT intensity [1]: 0
- SPOT intensity [2]: 0
- SPOT intensity [3]: 9
- SPOT intensity [4]: 14
- SPOT intensity [5]: 0
- SPOT intensity [6]: 16
- SPOT intensity [7]: 0
- SPOT intensity [8]: 25
- SPOT intensity [9]: 4
- SPOT intensity [10]: 12
- SPOT intensity [11]: 21
- SPOT intensity [12]: 8
- SPOT intensity [13]: 2
- SPOT intensity [14]: 1
- SPOT intensity [15]: 9
- SPOT intensity [16]: 4
- SPOT intensity [17]: 34
- SPOT intensity [18]: 4
- SPOT intensity [19]: 1
- SPOT intensity [20]: 5
- SPOT intensity [21]: 0
- SPOT intensity [22]: 0
- SPOT intensity [23]: 0
- SPOT intensity [24]: 1
- SPOT intensity [25]: 34
- SPOT intensity [26]: 0
- SPOT intensity [27]: 0

B4: unnamed (peptide)
chain: RRASLFPRDPKRLRP
- SPOT intensity [1]: 1
- SPOT intensity [2]: 1
- SPOT intensity [3]: 35
- SPOT intensity [4]: 21
- SPOT intensity [5]: 5
- SPOT intensity [6]: 25
- SPOT intensity [7]: 4
- SPOT intensity [8]: 10
- SPOT intensity [9]: 0
- SPOT intensity [10]: 165
- SPOT intensity [11]: 67
- SPOT intensity [12]: 158
- SPOT intensity [13]: 3
- SPOT intensity [14]: 7
- SPOT intensity [15]: 79
- SPOT intensity [16]: 7
- SPOT intensity [17]: 148
- SPOT intensity [18]: 2
- SPOT intensity [19]: 11
- SPOT intensity [20]: 7
- SPOT intensity [21]: 0
- SPOT intensity [22]: 0
- SPOT intensity [23]: 7
- SPOT intensity [24]: 8
- SPOT intensity [25]: 95
- SPOT intensity [26]: 0
- SPOT intensity [27]: 2

B5: unnamed (peptide)
chain: HKVLRPFLLRRLKKD
- SPOT intensity [1]: 0
- SPOT intensity [2]: 1
- SPOT intensity [3]: 0
- SPOT intensity [4]: 0
- SPOT intensity [5]: 0
- SPOT intensity [6]: 52
- SPOT intensity [7]: 0
- SPOT intensity [8]: 21
- SPOT intensity [9]: 13
- SPOT intensity [10]: 333
- SPOT intensity [11]: 26
- SPOT intensity [12]: 30
- SPOT intensity [13]: 3
- SPOT intensity [14]: 0
- SPOT intensity [15]: 11
- SPOT intensity [16]: 1
- SPOT intensity [17]: 67
- SPOT intensity [18]: 0
- SPOT intensity [19]: 4
- SPOT intensity [20]: 1
- SPOT intensity [21]: 0
- SPOT intensity [22]: 0
- SPOT intensity [23]: 0
- SPOT intensity [24]: 0
- SPOT intensity [25]: 34
- SPOT intensity [26]: 0
- SPOT intensity [27]: 0

B6: unnamed (peptide)
chain: YHSRRHPLALGFKYV
- SPOT intensity [1]: 0
- SPOT intensity [2]: 0
- SPOT intensity [3]: 0
- SPOT intensity [4]: 0
- SPOT intensity [5]: 0
- SPOT intensity [6]: 5
- SPOT intensity [7]: 0
- SPOT intensity [8]: 4
- SPOT intensity [9]: 0
- SPOT intensity [10]: 2
- SPOT intensity [11]: 7
- SPOT intensity [12]: 9
- SPOT intensity [13]: 3
- SPOT intensity [14]: 0
- SPOT intensity [15]: 0
- SPOT intensity [16]: 0
- SPOT intensity [17]: 6
- SPOT intensity [18]: 4
- SPOT intensity [19]: 13
- SPOT intensity [20]: 10
- SPOT intensity [21]: 0
- SPOT intensity [22]: 0
- SPOT intensity [23]: 1
- SPOT intensity [24]: 0
- SPOT intensity [25]: 0
- SPOT intensity [26]: 0
- SPOT intensity [27]: 0
